Measured values as given in US20250325630A1, “HOMODIMER FUSION PROTEINS FOR TREATING ATOPIC DERMATITIS” (Intervet Inc., priority 2021, published 2025).

T1: canine IL-13 (canine, UniProt Q9N0W9 19-131, limits assumed, biotin-labeled in the Octet assay (site not stated))
T1 sequence (looked up): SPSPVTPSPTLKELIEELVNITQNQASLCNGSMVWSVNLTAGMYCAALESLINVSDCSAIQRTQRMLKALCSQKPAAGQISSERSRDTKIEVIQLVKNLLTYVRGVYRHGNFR

T2: canine IL-4 (canine, UniProt O77762 25-132, biotin-labeled in the Octet assay (site not stated))
T2 sequence (looked up): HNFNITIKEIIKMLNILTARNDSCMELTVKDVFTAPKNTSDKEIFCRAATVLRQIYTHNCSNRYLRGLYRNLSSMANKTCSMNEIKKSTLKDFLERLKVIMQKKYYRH


Legend:
canine IL-13 [1] = biological target: T1, canine IL-13; assay: cell-based or functional assay
canine IL-13 [2] = biological target: T1, canine IL-13; assay: cell-based or functional assay; remark: listed apart in the source
canine IL-4 [3] = biological target: T2, canine IL-4; assay: cell-based or functional assay
canine IL-13 [4] = biological target: T1, canine IL-13; assay: BLI (Octet); summary table, rounded from Table 4
canine IL-4 [5] = biological target: T2, canine IL-4; assay: cell-based or functional assay; remark: listed apart in the source
canine IL-13 [6] = biological target: T1, canine IL-13; assay: BLI (Octet HTX), biotin-cIL-13 on SA biosensors, fusion protein in solution, 1:1 fit
Method: (§1) The binding constants for the cFc fusion proteins provided in Tables 3 and 4 below, were determined using OCTET® HTX. All kinetics measurements were performed by OCTET® HTX using SA® biosensors and DATA ACQUISITION® 12.0 software. 10 μg/mL of biotin-labeled antigen, either canine IL-4 (cIL-4) or canine IL-13 (cIL-13) were loaded onto the SAR biosensors for 120 seconds. Next, the biosensors were placed into 1×pH 7.0 TBS/Casein buffer for 60 seconds for the blocking phase. For the association phase, antigen loaded biosensors were placed into 2-fold serial dilutions from 1 μM down to 15.6 nM of the wild-type, the bispecific, or the FcRn-mutant receptor Fc-fusions that recognized the cIL-4 or cIL-13 antigen in 1×pH 7.0 TBS/Casein buffer for 30 seconds. The last well was buffer alone and that sensor was used for reference sensor subtraction. Finally, the biosensors were placed into 1×pH 7.0 TBS/Casein buffer for 120 seconds for the dissociation phase. The results were then analyzed using Data Analysis 12.0 software and the curves were fitted using a 1:1 binding model.

canine IL-13 [7] = biological target: T1, canine IL-13; assay: cell-based or functional assay; remark: listed apart in the source
canine IL-4 [8] = biological target: T2, canine IL-4; assay: BLI (Octet HTX), biotin-cIL-4 on SA biosensors; ND = Binding Not Detected
Method: as §1

canine IL-31Rα = assay: ELISA binding of chimeric and caninized antibodies to canine IL-31Rα; details: FIG. 1-3, in words
Method: The nucleotide and deduced amino acid sequence of the HC and LC of selected rat antibodies reactive with canine IL-31Rα was determined. The amino acid sequences representing the 3 HC CDRs and 3 LC CDRs for each antibody also were determined. These CDRs were used to develop caninized antibodies that bind canine IL-31Rα ECD. The binding of caninized antibodies to IL-31Rα was determined by ELISA as follows:
• 1. Anti-Dog IgG (cFc specific)-Peroxidase (Sigma-Aldrich SAB3700109-1.5 MG) • 2. TMB-ELISA Substrate (Thermo-Fisher Cat #34028) • 3. PBS pH7.4 (Thermo-Fisher Cat #10010001) • 4. Tris Buffered Saline with Tween 20 (TBST) (Sigma-Aldrich T9039-10PAK)
• 1. Coat immunoplates by cIL-31Rα in PBS buffer at 1 μg/mL, 100 μL/well. Incubate the plates at 37° C. for 1-2 hrs or 4° C. overnight. • 2. Wash the plates 3 times by TBST buffer. • 3. Block the plates by blocking buffer (0.5% BSA in TBST) for 45-60 minutes at room temperature. • 4. Three-fold dilute anti-cIL31-Ra antibodies with blocking buffer in dilution plates and transfer the diluted antibodies into the cIL-31Rα coated plates, incubate 45-60 minutes at room temperature. • 5. Wash the plates 3 times by TBST. • 6. Add 1:2000 diluted HRP conjugated anti-dog IgG Fc into the plates, incubate 45-60 minutes at room temperature. • 7. Wash the plates 3 times by TBST. • 8. […] Read the plates by plate reader at […].

Row | Molecule | IL-13 IC50 (inhibition of cIL-13 mediated STAT6 phosphorylation in DH82 cells) (canine IL-13 [1]) | IL-13 (IC50), summary table (canine IL-13 [2]) | IL-4 (IC50), summary table (canine IL-4 [3]) | Kd (canine IL-13 [4]) | IL-4 IC50 (inhibition of cIL-4 mediated STAT6 phosphorylation in DH82 cells) (canine IL-4 [5]) | Kd (canine IL-13 [6]) | koff (canine IL-13 [6]) | kon (canine IL-13 [6]) | fold change of the concentration that inhibits 50% of the cIL-13 mediated STAT6 phosphorylation in DH82 cells, against cIL-13Rα2-cFc (canine IL-13 [7]) | binding result (canine IL-4 [8]) | EC50 of binding to canine IL-31Rα compared with the corresponding chimeric antibody (canine IL-31Rα)
1 | cIL-4Rα-13Rα2 ZW1-cFc (Fc fusion, also called cIL4Rα-IL13Rα2_ZW1-cFc; cIL-4Rα-IL13Rα2_ZW1-cFc) chain 1: VKVLHEPSCFSDYISTSVCQWKMDHPTNCSAELRLSYQLDFMGSENHTCVPENREDSVCVCSMPIDDAVEADVYQLDLWAGQQLLWSGSFQPSKHVKPRTPGNLTVHPNISHTWLLMWTNPYPTENHLHSELTYMVNVSNDNDPEDFKVYNVTYMGPTLRLAASTLKSGASYSARVRAWAQTYNSTWSDWSPSTTWLNYYEPWEQHLPPKRENGRVPRPPDCPKCPAPEMLGGPSVFIFPPKPKDTLLIARTPEVTCVVVDLDPEDPEVQISWFVDGKQMQTAKTQPREEQFNGTYRVVSVLPIGHQDWLKGKQFTCKVNNKALPSPIERTISKARGQAHQPSVYVYPPSREELSKNTVSLTCLIKDFFPPDIDVEWQSNGQQEPESKYRTTPPQLDEDGSYALVSKLSVDKSRWQRGDTFICAVMHEALHNHYTQESLSHSPGK chain 2: SMLSNAEIKVNPPQDFEIVDPGYLGYLSLQWQPPLFPDNFKECTIEYELKYRNIDSENWKTIITKNLHYKDGFDLNKGIEAKINTLLPAQCTNGSEVRSSWAETTYWTSPQGNRETKIQDMDCVYYNWQYLVCSWKPGMGVHFDTNYQLFYWYEGLDHSAECTDYIKVNGKNMGCRFPYLESSDYKDFYICVNGSSESQPIRPSYFIFQLQNIVKPMPPDYLSLTVKNSEEINLKWNMPKGPIPAKCFIYEIEFTEDGTTWVTTTVENEIQITRTSNESQKLCFLVRSKVNIYCSDDGIWSEWSDEQCWKGDIWKETPKRENGRVPRPPDCPKCPAPEMLGGPSVFIFPPKPKDTLLIARTPEVTCVVVDLDPEDPEVQISWFVDGKQMQTAKTQPREEQFNGTYRVVSVLPIGHQDWLKGKQFTCKVNNKALPSPIERTISKARGQAHQPSVYVLPPSREELSKNTVSLLCLIKDFFPPDIDVEWQSNGQQEPESKYLTWPPQLDEDGSYFLYSKLSVDKSRWQRGDTFICAVMHEALHNHYTQESLSHSPGK | 29.4 nM | 30 nM | 200 nM | 4 nM | 184 nM | 4.15 nM | 0.000135 s⁻¹ | 32600 M⁻¹ s⁻¹ | ~200 fold higher | no binding (tested: 1 µM (highest concentration tested)) | 
2 | c44E2 H5k1: caninized rat 44E2 anti-canine IL-31Rα antibody; likely c44E2VH5-cIgGBm (SEQ ID NO: 43) with c44E2VL1-cCk (SEQ ID NO: 45) (antibody) heavy: ELTLQESGPGLVKPSQTLSLTCTVSGFSLTSNGVSWIRQRPGRGLEWMGAISSGGSTYYNSVLKSRISITADTAKNQFSLQLSSMTTEDTAVYYCARRLSGYNYVPFAYWGQGTLVTVSSASTTAPSVFPLAPSCGSTSGSTVALACLVSGYFPEPVTVSWNSGSLTSGVHTFPSVLQSSGLYSLSSMVTVPSSRWPSETFTCNVAHPASKTKVDKPVPKRENGRVPRPPDCPKCPAPEMLGGPSVFIFPPKPKDTLLIARTPEVTCVVVALDPEDPEVQISWFVDGKQMQTAKTQPREEQFAGTYRVVSVLPIGHQDWLKGKQFTCKVNNKALPSPIERTISKARGQAHQPSVYVLPPSREELSKNTVSLTCLIKDFFPPDIDVEWQSNGQQEPESKYRTTPPQLDEDGSYFLYSKLSVDKSRWQRGDTFICAVMHEALHNHYTQESLSHSPGK light: EIVMTQSPASLSLSQEEKVTITCKASQNIYKHLAWYQQKPGQAPKLLIYNANSLQTGVPSRFSGSGSGTDFSFTISSLEPEDVAVYYCQQYYSGDTFGAGTKVELKRNDAQPAVYLFQPSPDQLHTGSASVVCLLNSFYPKDINVKWKVDGVIQDTGIQESVTEQDKDSTYSLSSTLTMSSTEYLSHELYSCEITHKSLPSTLIKSFQRSECQRVD |  |  |  |  |  |  |  |  |  |  | most similar to the EC50 of the corresponding chimeric 44E2 antibody
3 | c10A12 H2L6: caninized rat 10A12 anti-canine IL-31Rα antibody; likely c10A12VH2-cIgGBm (SEQ ID NO: 27) with c10A12VL6-cCl (SEQ ID NO: 31) (antibody) heavy: EVQLVESGGDLVKPGGSLRLSCAASGFTFSNYYMAWVRQAPGKGLQWVASISTGGGNTYYRDSVKGRFTISRDNAKNTLYLQMNSLRAEDTAMYYCARHGTLYFDYWGQGTLVTVSSASTTAPSVFPLAPSCGSTSGSTVALACLVSGYFPEPVTVSWNSGSLTSGVHTFPSVLQSSGLYSLSSMVTVPSSRWPSETFTCNVAHPASKTKVDKPVPKRENGRVPRPPDCPKCPAPEMLGGPSVFIFPPKPKDTLLIARTPEVTCVVVALDPEDPEVQISWFVDGKQMQTAKTQPREEQFAGTYRVVSVLPIGHQDWLKGKQFTCKVNNKALPSPIERTISKARGQAHQPSVYVLPPSREELSKNTVSLTCLIKDFFPPDIDVEWQSNGQQEPESKYRTTPPQLDEDGSYFLYSKLSVDKSRWQRGDTFICAVMHEALHNHYTQESLSHSPGK light: QPVLTQPPSLSASLGTTARLTCERSSGDIGDSYVSWYQQKPGSPPRDVIYVDDQRPSEVSKSFSGSKDTSANAGLLLISGLQPEDEADYFCQSYDSNIDGPVFGGGTHLTVLGQPKASPSVTLFPPSSEELGANKATLVCLISDFYPSGVTVAWKADGSPVTQGVETTKPSKQSNNKYAASSYLSLTPDKWKSHSSFSCLVTHEGSTVEKKVAPAECS |  |  |  |  |  |  |  |  |  |  | even lower than the EC50 for the corresponding chimeric 10A12 antibody
